B1: GpH7-A5/GpH7-B3 variant (I336_12R)/GpL16-k0 (antibody, human IgG1, kappa)
heavy 1: not shown
heavy 2: not shown
light: DIVMTQSPLSLPVTPGEPASISCQASESLVHSNRNTYLHWYLQKPGQSPQLLIYKVSNRFSGVPDRFSGSGSGTDFTLKISRVEAEDVGVYYCSQNTHVPPTFGQGTKVEIERTVAAPSVFIFPPSDEQLKSGTASVVCLLNNFYPREAKVQWKVDNALQSGNSQESVTEQDSKDSTYSLSSTLTLSKADYEKHKVYACEVTHQGLSSPVTKSFNRGEC
notes: Heterodimerized; only the B3 chain altered; also called He Ab I336_12R
B2: GpH7-A5/GpH7-B3 variant (I336_13S)/GpL16-k0 (antibody, human IgG1, kappa)
heavy 1: not shown
heavy 2: not shown
light: B1 light
notes: Heterodimerized; only the B3 chain altered; also called He Ab I336_13S
B3: GpH7-A5/GpH7-B3 variant (S337_04F)/GpL16-k0 (antibody, human IgG1, kappa)
heavy 1: not shown
heavy 2: not shown
light: B1 light
notes: Heterodimerized; only the B3 chain altered; also called He Ab S337_04F
B4: GpH7-A5/GpH7-B3 variant (S337_20W)/GpL16-k0 (antibody, human IgG1, kappa)
heavy 1: not shown
heavy 2: not shown
light: B1 light
notes: Heterodimerized; only the B3 chain altered; also called He Ab S337_20W
B5: GpH7-A5/GpH7-B3 variant (T335_15Y)/GpL16-k0 (antibody, human IgG1, kappa)
heavy 1: not shown
heavy 2: not shown
light: B1 light
notes: Heterodimerized; only the B3 chain altered; also called He Ab T335_15Y
B6: GpH7-A5/GpH7-B3 variant (S337_15Y)/GpL16-k0 (antibody, human IgG1, kappa)
heavy 1: not shown
heavy 2: not shown
light: B1 light
notes: Heterodimerized; only the B3 chain altered; also called He Ab S337_15Y
B7: GpH7-A5/GpH7-B3 variant (S337_10E)/GpL16-k0 (antibody, human IgG1, kappa)
heavy 1: not shown
heavy 2: not shown
light: B1 light
notes: Heterodimerized; only the B3 chain altered; also called He Ab S337_10E
B8: GpH7-A5/GpH7-B3 variant (T335_07I)/GpL16-k0 (antibody, human IgG1, kappa)
heavy 1: not shown
heavy 2: not shown
light: B1 light
notes: Heterodimerized; only the B3 chain altered; also called He Ab T335_07I
B9: GpH7-A5/GpH7-B3 variant (T335_11K)/GpL16-k0 (antibody, human IgG1, kappa)
heavy 1: not shown
heavy 2: not shown
light: B1 light
notes: Heterodimerized; only the B3 chain altered; also called He Ab T335_11K
B10: GpH7-A5/GpH7-B3 variant (T335_12R)/GpL16-k0 (antibody, human IgG1, kappa)
heavy 1: not shown
heavy 2: not shown
light: B1 light
notes: Heterodimerized; only the B3 chain altered; also called He Ab T335_12R
B11: GpH7-A5/GpH7-B3 variant (T335_10E)/GpL16-k0 (antibody, human IgG1, kappa)
heavy 1: not shown
heavy 2: not shown
light: B1 light
notes: Heterodimerized; only the B3 chain altered; also called He Ab T335_10E
B12: GpH7-A5/GpH7-B3 variant (S337_07I)/GpL16-k0 (antibody, human IgG1, kappa)
heavy 1: not shown
heavy 2: not shown
light: B1 light
notes: Heterodimerized; only the B3 chain altered; also called He Ab S337_07I
B13: GpH7-A5/GpH7-B3 variant (T335_05P)/GpL16-k0 (antibody, human IgG1, kappa)
heavy 1: not shown
heavy 2: not shown
light: B1 light
notes: Heterodimerized; only the B3 chain altered; also called He Ab T335_05P
B14: GpH7-A5/GpH7-B3 variant (I336_14T)/GpL16-k0 (antibody, human IgG1, kappa)
heavy 1: not shown
heavy 2: not shown
light: B1 light
notes: Heterodimerized; only the B3 chain altered; also called He Ab I336_14T
B15: GpH7-A5/GpH7-B3 variant (S337_19Q)/GpL16-k0 (antibody, human IgG1, kappa)
heavy 1: not shown
heavy 2: not shown
light: B1 light
notes: Heterodimerized; only the B3 chain altered; also called He Ab S337_19Q
B16: GpH7-A5/GpH7-B3 variant (T335_09D)/GpL16-k0 (antibody, human IgG1, kappa)
heavy 1: not shown
heavy 2: not shown
light: B1 light
notes: Heterodimerized; only the B3 chain altered; also called He Ab T335_09D
B17: GpH7-A5/GpH7-B3 variant (T335_06M)/GpL16-k0 (antibody, human IgG1, kappa)
heavy 1: not shown
heavy 2: not shown
light: B1 light
notes: Heterodimerized; only the B3 chain altered; also called He Ab T335_06M
B18: GpH7-A5/GpH7-B3 variant (S337_08L)/GpL16-k0 (antibody, human IgG1, kappa)
heavy 1: not shown
heavy 2: not shown
light: B1 light
notes: Heterodimerized; only the B3 chain altered; also called He Ab S337_08L
B19: GpH7-A5/GpH7-B3 variant (S337_09D)/GpL16-k0 (antibody, human IgG1, kappa)
heavy 1: not shown
heavy 2: not shown
light: B1 light
notes: Heterodimerized; only the B3 chain altered; also called He Ab S337_09D
B20: GpH7-A5/GpH7-B3 variant (T335_08L)/GpL16-k0 (antibody, human IgG1, kappa)
heavy 1: not shown
heavy 2: not shown
light: B1 light
notes: Heterodimerized; only the B3 chain altered; also called He Ab T335_08L
B21: GpH7-A5/GpH7-B3 variant (S337_06M)/GpL16-k0 (antibody, human IgG1, kappa)
heavy 1: not shown
heavy 2: not shown
light: B1 light
notes: Heterodimerized; only the B3 chain altered; also called He Ab S337_06M

The target of the experiment is T1, FcγRIa extracellular domain with C-terminal His tag (human, UniProt P12314 16-292).
T1 construct: extracellular domain; Expressed in FreeStyle293 cells; used as analyte in Biacore; also called FcgRI; 1a; not shown: His tag at the C terminus
T1 sequence (P12314 16-292): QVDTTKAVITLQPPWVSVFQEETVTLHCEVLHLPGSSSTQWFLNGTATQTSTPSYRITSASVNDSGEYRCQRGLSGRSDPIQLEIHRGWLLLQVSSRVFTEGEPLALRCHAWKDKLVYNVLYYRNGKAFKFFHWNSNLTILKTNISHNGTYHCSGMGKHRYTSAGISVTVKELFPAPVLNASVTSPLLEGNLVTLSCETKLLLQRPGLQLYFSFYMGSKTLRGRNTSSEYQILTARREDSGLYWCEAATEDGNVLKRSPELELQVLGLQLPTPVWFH
Briefly: SPR (Biacore), captured antibody, FcγRIa analyte; relative to GpH7-A5/GpH7-B3/GpL16-k0 = 100. Background: SPR reads the build-up and loss of mass on a sensor chip optically.
For B1, the He/Con_1a is 102 % of control.
The result for B2 reads 102 % of control; that for B3, 106 % of control; that for B4, 105 % of control.
The result for B5 reads 107 % of control; that for B6, 104 % of control.
As to B7, the He/Con_1a is 106 % of control.
In the case of B8, the He/Con_1a is 109 % of control.
As to B9, the He/Con_1a was 111 % of control.
With B10, the He/Con_1a is 113 % of control.
Take B11: the He/Con_1a was 109 % of control.
As to B12, the He/Con_1a was 105 % of control.
Take B13: the He/Con_1a is 106 % of control.
The result for B14 reads 104 % of control.
Next, B15: 105 % of control.
Turning to B16, the He/Con_1a was 108 % of control.
Consider B17, for which the He/Con_1a is 107 % of control.
Next, B18: 105 % of control.
As for B19, the He/Con_1a was 106 % of control.
Next, B20: 115 % of control; B21: 107 % of control.

(Values after patent US20180155451A1 (published 2018).)
